In the supplement of paper PMC7877785:
± gives the uncertainty stated by the source.

Assay: self-splicing fitness, log relative to wild type (ln ratio); higher = more splicing; Tetrahymena group I intron in knt gene, E. coli kanamycin selection, DiMSum; sequences stand for … in CUCUCU…GGAGGGAAAAGUUAUCAGGCAUGCACCUGGUAGCUAGUCUUUAAACCAAUAGAUUGCAUCGGUUUAAAAGGCAAGACCGUCAAAUUGCGGGAAAGGGGUCAACAGCCGUUCAGUACCAAGUCUCAGGGGAAACUUUGAGAUGGCCUUGCAAAGGGUAUGGUAAUAAGCUGACGGACAUGGUCCUAACCACGCAGCCAAGUCCUAAGUCAACAGAUCUUCUGUUGAUAUGGAUGCAGUUCACAGACUAAAUGUCGGUCGGGGAAGAUGUAUUCUUCUCAUAAGAUAUAGUCGGACCUCUCCUUAAUGGGAGCUAGCGGAUGAAGUGAUGCAACACUGGAGCCGCUGGGAACUAAUUUGUAUGCGAAAGUAUAUUGAUUAGUUUUGGAGUACUCGUGGUCG
Summary of the method: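 A randomised library covering all eight P1ex-region intron nucleotides was built with the intron in the knt kanamycin-resistance gene on pET-22b(+) and held in E. coli BL21(DE3). Cells were grown overnight at 37°C or 30°C on LB agar, with or without 25 μg/mL kanamycin, plus 100 μg/mL carbenicillin, 50 μM IPTG and 0.2% rhamnose, and pooled colonies were amplicon-sequenced on an Illumina HiSeq 2500. DiMSum fitness is the error-weighted combination of wild-type-normalised replicate fold changes, kanamycin versus none.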

| Sequence | self-splicing fitness (ln) (30 °C) | self-splicing fitness (ln) (37 °C) |
| --- | --- | --- |
| UUUUAGCAAUAUUACGGGCA | -1.86 ± 0.39 | -0.575 ± 0.27 |
| UUUUAGCAAUAUUACGGUAU | -2.87 ± 0.32 | -3.11 ± 0.47 |
| UUUUAGCAAUAUUACGUAAG | -0.681 ± 0.13 | -0.523 ± 0.14 |
| UUUUAGCAAUAUUACGUACG | -2.14 ± 0.37 | -0.297 ± 0.33 |
| UUUUAGCAAUAUUACGUCGA | -0.866 ± 0.12 | 0.0877 ± 0.14 |
| UUUUAGCAAUAUUACGUUCG | -0.683 ± 0.11 | -1.34 ± 0.12 |
| UUUUAGCAAUAUUACGUUCU | -3.48 ± 0.37 | -1.17 ± 0.17 |
